Here are results for two substances from publication PMC3110719.

The series has as its system Nc1ncnc2c1ncn2[C@@H]1O[C@H](COP(=O)(O)OP(=O)(O)OP(=O)(O)O)[C@@H](O)[C@H]1O. The series can be described thus: purified protein.

Read-outs that look alike come from different tables or passages of the source.

Broadly, the Km is the concentration of substrate that gives half-maximal velocity. As to MsbA (Escherichia coli K-12; D512G), the Km (1 µM MsbA, 0-1 mM ATP, 30 min) is 122 ± 29 µM.
As for MsbA (Escherichia coli K-12; L511P), the Km is reported as 23 ± 12 µM.
